According to publication PMC3030345:

What was measured:
[1] = biological target: APOBEC3G (A3G-Myc-His) (human, UniProt Q9HC16 1-384); assay: EMSA
[2] = biological target: A3G-H248A/H250A-Myc-His (human, UniProt Q9HC16 1-384, H248A;H250A); assay: EMSA
Sequence of A3G-H248A/H250A-Myc-His (Q9HC16 whole entry H248A/H250A): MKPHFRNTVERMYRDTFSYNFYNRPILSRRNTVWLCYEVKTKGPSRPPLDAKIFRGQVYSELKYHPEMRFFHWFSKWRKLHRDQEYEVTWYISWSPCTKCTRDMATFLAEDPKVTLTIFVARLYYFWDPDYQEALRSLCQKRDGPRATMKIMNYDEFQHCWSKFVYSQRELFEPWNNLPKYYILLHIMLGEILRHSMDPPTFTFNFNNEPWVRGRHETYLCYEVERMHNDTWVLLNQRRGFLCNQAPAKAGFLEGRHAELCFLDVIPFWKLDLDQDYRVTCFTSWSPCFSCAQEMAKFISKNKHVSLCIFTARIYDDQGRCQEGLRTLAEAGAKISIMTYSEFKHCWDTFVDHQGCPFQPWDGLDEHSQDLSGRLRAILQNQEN

Sequence of APOBEC3G (A3G-Myc-His) (Q9HC16 whole entry): as the sequence (Q9HC16 whole entry H248A/H250A) above, with A248H, A250H counted along it

## ATTATTATTATTCCAATGGATTTATTTATTTATTTATTTATTT (ssDNA) [43-nt ssDNA]
[1]
  binding result: binds
[2]
  binding result: binds
